Here are results for two substances from US20220169997.

For data set [1], the system named is PR405: SP(HSA)-PTEN-L-MMP2/9-HSA-6xHis.
Data set [2] has as its system PR406: SP(HSA)-PTEN-L-cathepsin B-HSA-6xHis.
Data set [3] relates to PR402: SP(HSA)-PTEN-L-HSA-6xHis.
Data set [4] relates to PR408: SP(HSA)-PTEN-L-cathepsinB**-HSA-6xHis.
Data set [5] has as its system PR407: SP(HSA)-PTEN-L-cathepsin B*-HSA-6xHis.

Recombinant active MMP2 protease (Enzo cat. #BML-SE237-0010), sequence (chain, as listed by the source): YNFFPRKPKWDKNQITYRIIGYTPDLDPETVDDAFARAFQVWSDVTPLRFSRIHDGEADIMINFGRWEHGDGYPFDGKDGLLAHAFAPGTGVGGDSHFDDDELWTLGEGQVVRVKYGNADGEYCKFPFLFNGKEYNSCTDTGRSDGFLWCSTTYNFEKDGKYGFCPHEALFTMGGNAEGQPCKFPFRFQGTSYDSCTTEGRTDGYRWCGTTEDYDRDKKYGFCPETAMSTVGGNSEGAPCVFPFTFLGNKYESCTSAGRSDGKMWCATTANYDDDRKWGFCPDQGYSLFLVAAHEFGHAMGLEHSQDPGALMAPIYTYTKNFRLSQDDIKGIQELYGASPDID

For the substance Active CATSB (BioVision #7580-5), the “in vitro cleavage of the fusion in CHO-3E7 supernatant (0.3 µg/ml CATSB), WB with F-1 anti-PTEN (no cleavage)” value in data set [1] is reported as “PR405 (SEQ ID NO:129; cDNA SEQ ID NO:157) was not cleaved by CATSB”; in data set [2], “though it did not cleave PR406 (SEQ ID NO:130; cDNA SEQ ID NO:158)”. For the same substance, the “in vitro cleavage of the fusion in CHO-3E7 supernatant, WB with F-1 anti-PTEN (no cleavage)” value in data set [3] is given as “PR402 was not appreciably cleaved by either recombinant MMP2 or CATSB”.

Take “Recombinant active MMP2 protease (Enzo cat. #BML-SE237-0010)”: the “in vitro cleavage of the fusion in CHO-3E7 supernatant, WB with F-1 anti-PTEN (no cleavage)” value in data set [4] was “MMP2 did however cleave its consensus site (SEQ ID NO:165) on PR405 only”; in data set [2] it was “MMP2 did however cleave its consensus site (SEQ ID NO:165) on PR405 only”; in data set [3] it was “PR402 was not appreciably cleaved by either recombinant MMP2 or CATSB”; in data set [5], “MMP2 did however cleave its consensus site (SEQ ID NO:165) on PR405 only”. For the same substance, in data set [1], the “in vitro cleavage of the fusion in CHO-3E7 supernatant (20 nM MMP2, 0/4/21 h), WB with F-1 anti-PTEN” value was “MMP2 did however cleave its consensus site (SEQ ID NO:165) on PR405 only; this cleavage released a PTEN-L-like fragment (˜70 KDa)”.
